± gives the uncertainty stated by the source.
B1: Apoptosis-associated speck-like protein containing a CARD, residues 114 to 194; numbered along this chain, Q9ULZ3 (parent)
chain: FIDQHRAALIARVTNVEWLLDALYGKVLTDEQYQAVRAEPTNPSKMRKLFSFTPAWNWTCKDLLLQALRESQSYLVEDLER

Variants of: B1
Assay: abundance fitness (aPCA) (normalised: wild type 0, dead -1); higher = more abundant; growth selection in yeast, the domain comes from the species named
Conditions: Homo sapiens

Variant	abundance fitness
FIDQHRAALIARVTNVEWLLDALYGKVLTDEQYQAVRAEPTNPSKMRKLFSFTPAWNWTCKDLTLQALRESQSYLVEDLER [L64T]	-0.513 ± 0.09
FIDQHRAALIARVTNVEWLLDALYGKVLTDEQYQAVRAEPTNPSKMRKLFSFTPAWNWTCKDLELQALRESQSYLVEDLER [L64E]	-0.944 ± 0.16
FIDQHRAALIARVTNVEWLLDALYGKVLTDEQYQAVRAEPTNPSKMRKLFSFTPAWNWTCKDLSLQALRESQSYLVEDLER [L64S]	-0.853 ± 0.1
FIDQHRAALIARVTNVEWLLDALYGKVLTDEQYQAVRAEPTNPSKMRKLFSFTPAWNWTCKDLFLQALRESQSYLVEDLER [L64F]	0.2 ± 0.11
FIDQHRAALIARVTNVEWLLDALYGKVLTDEQYQAVRAEPTNPSKMRKLFSFTPAWNWTCKDLMLQALRESQSYLVEDLER [L64M]	0.163 ± 0.075
FIDQHRAALIARVTNVEWLLDALYGKVLTDEQYQAVRAEPTNPSKMRKLFSFTPAWNWTCKDLGLQALRESQSYLVEDLER [L64G]	-0.695 ± 0.076
FIDQHRAALIARVTNVEWLLDALYGKVLTDEQYQAVRAEPTNPSKMRKLFSFTPAWNWTCKDLALQALRESQSYLVEDLER [L64A]	-0.343 ± 0.065
FIDQHRAALIARVTNVEWLLDALYGKVLTDEQYQAVRAEPTNPSKMRKLFSFTPAWNWTCKDLWLQALRESQSYLVEDLER [L64W]	-0.961 ± 0.2
FIDQHRAALIARVTNVEWLLDALYGKVLTDEQYQAVRAEPTNPSKMRKLFSFTPAWNWTCKDLKLQALRESQSYLVEDLER [L64K]	-0.918 ± 0.2
FIDQHRAALIARVTNVEWLLDALYGKVLTDEQYQAVRAEPTNPSKMRKLFSFTPAWNWTCKDLYLQALRESQSYLVEDLER [L64Y]	-0.75 ± 0.2
FIDQHRAALIARVTNVEWLLDALYGKVLTDEQYQAVRAEPTNPSKMRKLFSFTPAWNWTCKDLVLQALRESQSYLVEDLER [L64V]	-0.123 ± 0.05
FIDQHRAALIARVTNVEWLLDALYGKVLTDEQYQAVRAEPTNPSKMRKLFSFTPAWNWTCKDLPLQALRESQSYLVEDLER [L64P]	-1.02 ± 0.21
FIDQHRAALIARVTNVEWLLDALYGKVLTDEQYQAVRAEPTNPSKMRKLFSFTPAWNWTCKDLDLQALRESQSYLVEDLER [L64D]	-0.519 ± 0.12
FIDQHRAALIARVTNVEWLLDALYGKVLTDEQYQAVRAEPTNPSKMRKLFSFTPAWNWTCKDLILQALRESQSYLVEDLER [L64I]	-0.192 ± 0.15
FIDQHRAALIARVTNVEWLLDALYGKVLTDEQYQAVRAEPTNPSKMRKLFSFTPAWNWTCKDLQLQALRESQSYLVEDLER [L64Q]	-0.354 ± 0.19
FIDQHRAALIARVTNVEWLLDALYGKVLTDEQYQAVRAEPTNPSKMRKLFSFTPAWNWTCKDLCLQALRESQSYLVEDLER [L64C]	-0.481 ± 0.15
FIDQHRAALIARVTNVEWLLDALYGKVLTDEQYQAVRAEPTNPSKMRKLFSFTPAWNWTCKDLLYQALRESQSYLVEDLER [L65Y]	-0.098 ± 0.14
FIDQHRAALIARVTNVEWLLDALYGKVLTDEQYQAVRAEPTNPSKMRKLFSFTPAWNWTCKDLLWQALRESQSYLVEDLER [L65W]	-0.172 ± 0.066
FIDQHRAALIARVTNVEWLLDALYGKVLTDEQYQAVRAEPTNPSKMRKLFSFTPAWNWTCKDLLTQALRESQSYLVEDLER [L65T]	-0.343 ± 0.096
FIDQHRAALIARVTNVEWLLDALYGKVLTDEQYQAVRAEPTNPSKMRKLFSFTPAWNWTCKDLLIQALRESQSYLVEDLER [L65I]	-0.338 ± 0.099
FIDQHRAALIARVTNVEWLLDALYGKVLTDEQYQAVRAEPTNPSKMRKLFSFTPAWNWTCKDLLPQALRESQSYLVEDLER [L65P]	-0.939 ± 0.23
FIDQHRAALIARVTNVEWLLDALYGKVLTDEQYQAVRAEPTNPSKMRKLFSFTPAWNWTCKDLLDQALRESQSYLVEDLER [L65D]	-0.563 ± 0.099
FIDQHRAALIARVTNVEWLLDALYGKVLTDEQYQAVRAEPTNPSKMRKLFSFTPAWNWTCKDLLCQALRESQSYLVEDLER [L65C]	-0.248 ± 0.088

Variant	abundance fitness
FIDQHRAALIARVTNVEWLLDALYGKVLTDEQYQAVRAEPTNPSKMRKLFSFTPAWNWTCKDLLRQALRESQSYLVEDLER [L65R]	-0.361 ± 0.068
FIDQHRAALIARVTNVEWLLDALYGKVLTDEQYQAVRAEPTNPSKMRKLFSFTPAWNWTCKDLLMQALRESQSYLVEDLER [L65M]	-0.194 ± 0.091
FIDQHRAALIARVTNVEWLLDALYGKVLTDEQYQAVRAEPTNPSKMRKLFSFTPAWNWTCKDLLEQALRESQSYLVEDLER [L65E]	-0.142 ± 0.1
FIDQHRAALIARVTNVEWLLDALYGKVLTDEQYQAVRAEPTNPSKMRKLFSFTPAWNWTCKDLLFQALRESQSYLVEDLER [L65F]	-0.024 ± 0.073
FIDQHRAALIARVTNVEWLLDALYGKVLTDEQYQAVRAEPTNPSKMRKLFSFTPAWNWTCKDLLHQALRESQSYLVEDLER [L65H]	-0.143 ± 0.099
FIDQHRAALIARVTNVEWLLDALYGKVLTDEQYQAVRAEPTNPSKMRKLFSFTPAWNWTCKDLLSQALRESQSYLVEDLER [L65S]	-0.512 ± 0.07
FIDQHRAALIARVTNVEWLLDALYGKVLTDEQYQAVRAEPTNPSKMRKLFSFTPAWNWTCKDLLAQALRESQSYLVEDLER [L65A]	-0.074 ± 0.06
FIDQHRAALIARVTNVEWLLDALYGKVLTDEQYQAVRAEPTNPSKMRKLFSFTPAWNWTCKDLLNQALRESQSYLVEDLER [L65N]	-0.548 ± 0.21
FIDQHRAALIARVTNVEWLLDALYGKVLTDEQYQAVRAEPTNPSKMRKLFSFTPAWNWTCKDLLQQALRESQSYLVEDLER [L65Q]	-0.812 ± 0.18
FIDQHRAALIARVTNVEWLLDALYGKVLTDEQYQAVRAEPTNPSKMRKLFSFTPAWNWTCKDLLGQALRESQSYLVEDLER [L65G]	-0.611 ± 0.052
FIDQHRAALIARVTNVEWLLDALYGKVLTDEQYQAVRAEPTNPSKMRKLFSFTPAWNWTCKDELLQALRESQSYLVEDLER [L63E]	-0.31 ± 0.1
FIDQHRAALIARVTNVEWLLDALYGKVLTDEQYQAVRAEPTNPSKMRKLFSFTPAWNWTCKDALLQALRESQSYLVEDLER [L63A]	-0.185 ± 0.053
FIDQHRAALIARVTNVEWLLDALYGKVLTDEQYQAVRAEPTNPSKMRKLFSFTPAWNWTCKDFLLQALRESQSYLVEDLER [L63F]	-0.381 ± 0.073
FIDQHRAALIARVTNVEWLLDALYGKVLTDEQYQAVRAEPTNPSKMRKLFSFTPAWNWTCKDMLLQALRESQSYLVEDLER [L63M]	0.056 ± 0.095
FIDQHRAALIARVTNVEWLLDALYGKVLTDEQYQAVRAEPTNPSKMRKLFSFTPAWNWTCKDILLQALRESQSYLVEDLER [L63I]	-0.359 ± 0.2
FIDQHRAALIARVTNVEWLLDALYGKVLTDEQYQAVRAEPTNPSKMRKLFSFTPAWNWTCKDDLLQALRESQSYLVEDLER [L63D]	-0.777 ± 0.14
FIDQHRAALIARVTNVEWLLDALYGKVLTDEQYQAVRAEPTNPSKMRKLFSFTPAWNWTCKDQLLQALRESQSYLVEDLER [L63Q]	-0.243 ± 0.098
FIDQHRAALIARVTNVEWLLDALYGKVLTDEQYQAVRAEPTNPSKMRKLFSFTPAWNWTCKDSLLQALRESQSYLVEDLER [L63S]	-0.61 ± 0.099
FIDQHRAALIARVTNVEWLLDALYGKVLTDEQYQAVRAEPTNPSKMRKLFSFTPAWNWTCKDVLLQALRESQSYLVEDLER [L63V]	-0.232 ± 0.055
FIDQHRAALIARVTNVEWLLDALYGKVLTDEQYQAVRAEPTNPSKMRKLFSFTPAWNWTCKDWLLQALRESQSYLVEDLER [L63W]	-0.543 ± 0.096
FIDQHRAALIARVTNVEWLLDALYGKVLTDEQYQAVRAEPTNPSKMRKLFSFTPAWNWTCKDNLLQALRESQSYLVEDLER [L63N]	-0.556 ± 0.27
FIDQHRAALIARVTNVEWLLDALYGKVLTDEQYQAVRAEPTNPSKMRKLFSFTPAWNWTCKDKLLQALRESQSYLVEDLER [L63K]	-0.298 ± 0.11
FIDQHRAALIARVTNVEWLLDALYGKVLTDEQYQAVRAEPTNPSKMRKLFSFTPAWNWTCKDRLLQALRESQSYLVEDLER [L63R]	-0.385 ± 0.059

Variant	abundance fitness
FIDQHRAALIARVTNVEWLLDALYGKVLTDEQYQAVRAEPTNPSKMRKLFSFTPAWNWTCKDCLLQALRESQSYLVEDLER [L63C]	-0.44 ± 0.11
FIDQHRAALIARVTNVEWLLDALYGKVLTDEQYQAVRAEPTNPSKMRKLFSFTPAWNWTCKDGLLQALRESQSYLVEDLER [L63G]	-0.862 ± 0.082
FIDQHRAALIARVTNVEWLLDALYGKVLTDEQYQAVRAEPTNPSKMRKLFSFTPAWNWTCKDYLLQALRESQSYLVEDLER [L63Y]	-0.028 ± 0.12
FIDQHRAALIARVTNVEWLLDALYGKVLTDEQYQAVRAEPTNPSKMRKLFSFTPAWNWTCKDPLLQALRESQSYLVEDLER [L63P]	-0.438 ± 0.075
FIDQHRAALIARVTNVEWLLDALYGKVLTDEQYQAVRAEPTNPSKMRKLFSFTPAWNWTCKDHLLQALRESQSYLVEDLER [L63H]	-0.425 ± 0.16
FIDQHRAALIARVTNVEWLLDALYGKVLTDEQYQAVRAEPTNPSKMRKLFSFTPAWNWTCKDTLLQALRESQSYLVEDLER [L63T]	-0.325 ± 0.076
FIDQHRAALIARVTNVEWLLDALYGKVLTDEQYQAVRAEPTNPSKMRKLFSFTPAWNWTCKDLLLDALRESQSYLVEDLER [Q66D]	-0.174 ± 0.1
FIDQHRAALIARVTNVEWLLDALYGKVLTDEQYQAVRAEPTNPSKMRKLFSFTPAWNWTCKDLLLEALRESQSYLVEDLER [Q66E]	-0.148 ± 0.079
FIDQHRAALIARVTNVEWLLDALYGKVLTDEQYQAVRAEPTNPSKMRKLFSFTPAWNWTCKDLLLCALRESQSYLVEDLER [Q66C]	-0.487 ± 0.078
FIDQHRAALIARVTNVEWLLDALYGKVLTDEQYQAVRAEPTNPSKMRKLFSFTPAWNWTCKDLLLMALRESQSYLVEDLER [Q66M]	-0.252 ± 0.11
FIDQHRAALIARVTNVEWLLDALYGKVLTDEQYQAVRAEPTNPSKMRKLFSFTPAWNWTCKDLLLKALRESQSYLVEDLER [Q66K]	-0.059 ± 0.089
FIDQHRAALIARVTNVEWLLDALYGKVLTDEQYQAVRAEPTNPSKMRKLFSFTPAWNWTCKDLLLLALRESQSYLVEDLER [Q66L]	-0.6 ± 0.078
FIDQHRAALIARVTNVEWLLDALYGKVLTDEQYQAVRAEPTNPSKMRKLFSFTPAWNWTCKDLLLIALRESQSYLVEDLER [Q66I]	-0.178 ± 0.16
FIDQHRAALIARVTNVEWLLDALYGKVLTDEQYQAVRAEPTNPSKMRKLFSFTPAWNWTCKDLLLAALRESQSYLVEDLER [Q66A]	-0.371 ± 0.049
FIDQHRAALIARVTNVEWLLDALYGKVLTDEQYQAVRAEPTNPSKMRKLFSFTPAWNWTCKDLLLHALRESQSYLVEDLER [Q66H]	-0.695 ± 0.37
FIDQHRAALIARVTNVEWLLDALYGKVLTDEQYQAVRAEPTNPSKMRKLFSFTPAWNWTCKSLLLQALRESQSYLVEDLER [D62S]	-0.168 ± 0.055
FIDQHRAALIARVTNVEWLLDALYGKVLTDEQYQAVRAEPTNPSKMRKLFSFTPAWNWTCKQLLLQALRESQSYLVEDLER [D62Q]	-0.037 ± 0.11
FIDQHRAALIARVTNVEWLLDALYGKVLTDEQYQAVRAEPTNPSKMRKLFSFTPAWNWTCKRLLLQALRESQSYLVEDLER [D62R]	-0.2 ± 0.071
FIDQHRAALIARVTNVEWLLDALYGKVLTDEQYQAVRAEPTNPSKMRKLFSFTPAWNWTCKTLLLQALRESQSYLVEDLER [D62T]	-0.423 ± 0.1
FIDQHRAALIARVTNVEWLLDALYGKVLTDEQYQAVRAEPTNPSKMRKLFSFTPAWNWTCKVLLLQALRESQSYLVEDLER [D62V]	-0.646 ± 0.086
FIDQHRAALIARVTNVEWLLDALYGKVLTDEQYQAVRAEPTNPSKMRKLFSFTPAWNWTCKWLLLQALRESQSYLVEDLER [D62W]	-0.609 ± 0.13
FIDQHRAALIARVTNVEWLLDALYGKVLTDEQYQAVRAEPTNPSKMRKLFSFTPAWNWTCKYLLLQALRESQSYLVEDLER [D62Y]	-0.644 ± 0.19
